This note sets out measurements from paper PMC2688388.

The target of the test is mCeruleanC-α1C,77 (human Cav1.2 calcium channel α1C,77 subunit labeled at the C-tail with mCerulean) (human). In words: FRET or BRET; two-color FRET (mCerulean/tagRFP) epifluorescence microscopy in COS1 cells, control for cascade transfer: Rβ3 and α1CC without Vα1C. (Bioluminescence resonance energy transfer reports proximity on the nanometre scale.)
Sequence of mCeruleanC-α1C,77 (human Cav1.2 calcium channel α1C,77 subunit labeled at the C-tail with mCerulean) (human) (Q13936 whole entry): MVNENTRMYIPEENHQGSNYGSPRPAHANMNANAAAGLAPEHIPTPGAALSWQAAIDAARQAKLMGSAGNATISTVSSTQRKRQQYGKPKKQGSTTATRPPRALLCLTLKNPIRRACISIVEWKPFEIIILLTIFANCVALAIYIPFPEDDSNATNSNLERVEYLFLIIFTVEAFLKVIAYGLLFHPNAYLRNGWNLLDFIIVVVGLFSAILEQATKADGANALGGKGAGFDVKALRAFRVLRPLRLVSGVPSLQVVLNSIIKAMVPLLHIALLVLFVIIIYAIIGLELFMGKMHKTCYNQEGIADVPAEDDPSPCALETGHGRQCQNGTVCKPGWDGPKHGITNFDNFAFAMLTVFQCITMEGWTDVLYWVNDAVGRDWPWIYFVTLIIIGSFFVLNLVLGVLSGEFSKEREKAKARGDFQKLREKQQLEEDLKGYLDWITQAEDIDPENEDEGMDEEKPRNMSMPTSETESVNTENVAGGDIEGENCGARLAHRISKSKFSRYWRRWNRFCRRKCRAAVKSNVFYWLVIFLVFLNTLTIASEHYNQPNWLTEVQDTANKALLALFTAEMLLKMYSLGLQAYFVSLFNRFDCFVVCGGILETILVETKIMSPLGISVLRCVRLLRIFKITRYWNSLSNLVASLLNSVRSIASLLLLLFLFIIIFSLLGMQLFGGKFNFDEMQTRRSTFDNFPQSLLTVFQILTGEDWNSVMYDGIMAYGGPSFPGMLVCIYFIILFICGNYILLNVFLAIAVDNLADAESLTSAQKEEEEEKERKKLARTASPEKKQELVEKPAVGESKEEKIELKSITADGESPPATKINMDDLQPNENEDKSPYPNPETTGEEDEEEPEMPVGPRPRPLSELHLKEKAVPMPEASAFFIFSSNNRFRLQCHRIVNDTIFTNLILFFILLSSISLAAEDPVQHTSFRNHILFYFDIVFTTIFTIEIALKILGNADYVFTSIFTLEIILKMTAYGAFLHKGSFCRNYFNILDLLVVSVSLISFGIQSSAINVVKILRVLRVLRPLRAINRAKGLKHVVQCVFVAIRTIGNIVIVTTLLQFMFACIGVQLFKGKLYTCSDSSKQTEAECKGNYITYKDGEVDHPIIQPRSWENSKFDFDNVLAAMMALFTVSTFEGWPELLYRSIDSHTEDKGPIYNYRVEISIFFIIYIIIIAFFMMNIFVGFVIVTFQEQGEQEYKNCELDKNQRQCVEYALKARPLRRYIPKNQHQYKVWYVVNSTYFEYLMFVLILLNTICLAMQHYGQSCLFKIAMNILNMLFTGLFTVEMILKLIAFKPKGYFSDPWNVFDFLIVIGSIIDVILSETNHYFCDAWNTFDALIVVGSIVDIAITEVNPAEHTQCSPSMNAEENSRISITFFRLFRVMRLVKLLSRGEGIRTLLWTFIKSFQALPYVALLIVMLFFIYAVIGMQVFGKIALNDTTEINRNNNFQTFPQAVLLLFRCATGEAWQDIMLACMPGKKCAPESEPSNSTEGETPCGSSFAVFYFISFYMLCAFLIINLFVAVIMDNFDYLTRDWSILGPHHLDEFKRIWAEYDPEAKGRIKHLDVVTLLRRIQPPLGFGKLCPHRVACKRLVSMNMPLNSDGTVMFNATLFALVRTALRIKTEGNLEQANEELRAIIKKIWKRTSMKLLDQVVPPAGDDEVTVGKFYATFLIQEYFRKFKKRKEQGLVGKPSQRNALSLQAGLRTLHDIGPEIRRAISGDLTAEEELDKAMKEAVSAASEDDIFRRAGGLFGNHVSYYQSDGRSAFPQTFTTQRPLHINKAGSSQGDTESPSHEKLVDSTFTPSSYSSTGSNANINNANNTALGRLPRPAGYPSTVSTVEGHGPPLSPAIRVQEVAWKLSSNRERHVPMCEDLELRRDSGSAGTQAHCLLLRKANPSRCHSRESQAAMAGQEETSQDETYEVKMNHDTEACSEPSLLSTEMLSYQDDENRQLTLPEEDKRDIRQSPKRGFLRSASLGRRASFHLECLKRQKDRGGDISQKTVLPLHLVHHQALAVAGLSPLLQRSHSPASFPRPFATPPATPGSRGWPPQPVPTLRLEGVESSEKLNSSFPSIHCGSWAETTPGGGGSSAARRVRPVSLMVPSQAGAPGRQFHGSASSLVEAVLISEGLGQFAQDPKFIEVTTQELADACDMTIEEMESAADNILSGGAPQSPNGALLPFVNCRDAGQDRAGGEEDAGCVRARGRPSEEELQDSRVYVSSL

Consider “RFP-β3 (human Cavβ3 subunit with tagRFP fused to the N-terminus) (from UniProt P54284 1-484) (natural protein)”, for which the FRET efficiency was found to be 0.05.
